# Assay results published in patent publication US12649008B2, “Peptide receptor radionuclide therapy” (The Regents of the University of California, priority 2020, dated 2026).
# Entries after “also recorded” stand apart in the source; their conditions may differ.
# Tests used:
# [1] = tested on: locally advanced, unresectable or metastatic pancreatic adenocarcinoma; assay: Single institution pilot study, 3+3 dose escalation; type: in vivo, human; settings: individual patients
# Description: Patients first underwent a single microdose of [^68Ga]Ga DOTA-5G PET/CT to assess eligibility for the [^177Lu]Lu DOTA-ABM-5G therapy. Only patients with sufficient lesion uptake (any visualized lesion with SUVmax>2-fold above normal lung or liver) were offered therapy with [^177Lu]Lu DOTA-ABM-5G. The study was designed as a 3+3 dose escalation study with [^177Lu]Lu DOTA-ABM-5G. The treatment regimen consisted of one dose of [^177Lu]Lu DOTA-ABM-5G. The 3+3 design included three patients for the first activity level group (25 mCi) (see Table 4, below). Dose-limiting toxicity (DLT) is defined as any treatment related AE≥grade 3 (G3). In addition, the radiation dose to the kidneys must not exceed 23 Gy and the dose to the bone marrow must not exceed 1.5 Gy. If no DLT occurs within 30 days (after the third patient), 3 patients were then enrolled at the next dose level. Should a patient not be available for complete evaluation of treatment related toxicity within the 30 day DLT window due to non-treatment related issues, the patient was replaced for the purpose of DLT assessment at the same dose level. If DLT attributable to the study treatment is experienced in exactly ⅓ subjects in the first course, 3 more patients (for a total of 6) are treated at that dose level. The dose was escalated if no additional DLT is observed at the expanded dose level (i.e., ⅙ with DLT). Escalation stops as soon as two or more subjects experience DLT attributable to the study drugs. The highest dose (200 mCi limit) with no more than one DLT out of six patients is recommended for Phase II. The radiation dose to the kidneys must not exceed 23 Gy and the dose to the bone marrow must not exceed 1.5 Gy.
# Patients deemed eligible based on the [^68Ga]Ga DOTA-5GPET/CT were scheduled to receive one dose of the [^177Lu]Lu DOTA-ABM-5G therapy within 4 weeks (±7 days) of the [^68Ga]Ga DOTA-5G scan. […] For renal protection purpose, a 4-hour co-infusion of an amino acid solution (containing L-lysine [between 18 g and 24 g] and L-arginine [between 18 g and 24 g] was started 30 minutes prior to the infusion of [^177Lu]Lu DOTA-ABM-5G and continued at a constant rate (250 cc/hr) for a total of 4 hours. The patient was monitored for one hour after completion of the amino acid solution infusion. Administration of the amino acid solution before, during and after the [^177Lu]Lu DOTA-ABM-5G therapy was based on experience with Lu-177 DOTATATE to flush the radionuclide through the proximal tubules and decrease the radiation dose to the kidneys. […]
# The biodistribution and dosimetry was evaluated using nuclear imaging at 1 day and 7 days post-infusion of [^177Lu]Lu DOTA-ABM-5G. […]
# human serum proteins = assay: Serum protein (albumin) binding by ultrafiltration, human serum; type: in vitro ADME; settings: 37° C.
# Description: The devices were pre-treated with PBS containing Tween 20 (5% v/v) as disclosed in Hausner 2007, followed by triplicate rinses with PBS. An aliquot of each formulated radiotracer in PBS (≤25 μL, 20-60 KBq) was thoroughly mixed with 0.5 mL serum at 37° C. in a microfuge tube. The mixture was incubated at 37° C. for 5 min and an aliquot (50 μL) of was transferred to a tube for γ-counting. The remaining sample was transferred to a Centrifree Ultrafiltration device and centrifuged for 40 min. at 1500×g at ambient temperature (20-24° C.). An aliquot (50 μL) of the filtrate was transferred to a tube for γ-counting. For each radiotracer, a blank was run using 0.5 mL PBS/Tween 20 (5% v/v) instead of serum (n=4) to determine non-specific binding. Following γ-counting, the protein-bound radioactivity was calculated by subtracting the counts measured in the filtrate aliquot (i.e., not protein bound) from the counts in the corresponding serum aliquot. The data are expressed as mean±standard deviation of fraction of radioactivity bound to protein after subtraction of non-specific binding determined in the blank.
# [2] = Blocking study (cold peptide 10 min before radiotracer), biodistribution; type: in vivo, mice; settings: female, nu/nu nude, mouse, BxPC-3 tumor, iv, total radioactivity; 4 h p.i.; DOTA-ABM-5G 48 mg/kg 10 min before
# Description: (§1) Female nu/nu nude mice (6-8 weeks old) were purchased from Charles River Laboratories (Wilmington, MA, USA) and handled according to the UC Davis Institutional Animal Care and Use Committee. BxPC-3 cells (5×10^6) in 100 μl 1:1 GFR-Matrigel: serum-free RPMI were implanted subcutaneously into the left shoulder flank and allowed to grow for approximately 2 weeks (therapy study) and 3 weeks (0.5-1 cm in diameter, for imaging and biodistribution studies). All cells were evaluated with flow cytometry before injection to confirm integrin expression levels. Food and water were available ad libitum.
# (§2) For blocking studies, respective non-chelated cold peptide (30 mg/kg, 10 mg/mL (DOTA-5G) and 48 mg/kg, 16 mg/mL (DOTA-ABM-5G) solution in PBS) was injected 10 min. before the formulated radiotracer. At each time point, the mice (n=3/time point/radiotracer) were anesthetized and sacrificed. The tissues were collected, rinsed with PBS, and the radioactivity of each measured with a gamma counter. Radioactivity concentrations were calibrated, decay-corrected, and expressed as percent of injected dose per gram of tissue (% ID/g).
# BxPC-3 (αvβ6 (+)) tumors = assay: as above; type: in vivo, mice; settings: 4 h p.i.
# Description: as §1, §2
smiles,measurement,setting,value
CNC(=O)C(CCCCNC(=O)C(CC(=O)O)NC(=O)CCCNC(=O)CCCc1ccc(I)cc1)NC(=O)CN1CCN2CCN3CCN(CC1)CC(=O)[O][177Lu]([O]C(=O)C2)[O]C(=O)C3 (stereo not shown) [[^177Lu]Lu DOTA-ABM-5G],Current status,[1]; Dose Level 1 (25 mCi),"alive, increase in metastatic; also recorded: alive, stable disease; also recorded: Deceased (patient deteriorated"
same,Renal function over 90 days,[1]; Dose Level 1 (25 mCi),no change
same,Current status,[1]; Dose Level 2 (50 mCi),"alive, no evidence of liver; also recorded: alive"
same,Renal function over 90 days,[1]; Dose Level 2 (50 mCi),no change
same,albumin (serum protein) binding,human serum proteins,58.1±0.4%
same,tissue uptake at 4 h,[2],4.12 %ID/g
same,change of BxPC-3 tumor uptake by blocking (Δ),BxPC-3 (αvβ6 (+)) tumors,−42%
